This is an account of results in patent US20240294650A1 (Alector, published 2024).

The target in assay [1] is T1, endogenous murine MerTK on bone marrow-derived macrophages (mouse, UniProt Q60805 19-994).
T1 construct: whole, on cells; MFI on MerTK KO BMDM subtracted; also called BMDM WT-KO
T1 sequence (looked up): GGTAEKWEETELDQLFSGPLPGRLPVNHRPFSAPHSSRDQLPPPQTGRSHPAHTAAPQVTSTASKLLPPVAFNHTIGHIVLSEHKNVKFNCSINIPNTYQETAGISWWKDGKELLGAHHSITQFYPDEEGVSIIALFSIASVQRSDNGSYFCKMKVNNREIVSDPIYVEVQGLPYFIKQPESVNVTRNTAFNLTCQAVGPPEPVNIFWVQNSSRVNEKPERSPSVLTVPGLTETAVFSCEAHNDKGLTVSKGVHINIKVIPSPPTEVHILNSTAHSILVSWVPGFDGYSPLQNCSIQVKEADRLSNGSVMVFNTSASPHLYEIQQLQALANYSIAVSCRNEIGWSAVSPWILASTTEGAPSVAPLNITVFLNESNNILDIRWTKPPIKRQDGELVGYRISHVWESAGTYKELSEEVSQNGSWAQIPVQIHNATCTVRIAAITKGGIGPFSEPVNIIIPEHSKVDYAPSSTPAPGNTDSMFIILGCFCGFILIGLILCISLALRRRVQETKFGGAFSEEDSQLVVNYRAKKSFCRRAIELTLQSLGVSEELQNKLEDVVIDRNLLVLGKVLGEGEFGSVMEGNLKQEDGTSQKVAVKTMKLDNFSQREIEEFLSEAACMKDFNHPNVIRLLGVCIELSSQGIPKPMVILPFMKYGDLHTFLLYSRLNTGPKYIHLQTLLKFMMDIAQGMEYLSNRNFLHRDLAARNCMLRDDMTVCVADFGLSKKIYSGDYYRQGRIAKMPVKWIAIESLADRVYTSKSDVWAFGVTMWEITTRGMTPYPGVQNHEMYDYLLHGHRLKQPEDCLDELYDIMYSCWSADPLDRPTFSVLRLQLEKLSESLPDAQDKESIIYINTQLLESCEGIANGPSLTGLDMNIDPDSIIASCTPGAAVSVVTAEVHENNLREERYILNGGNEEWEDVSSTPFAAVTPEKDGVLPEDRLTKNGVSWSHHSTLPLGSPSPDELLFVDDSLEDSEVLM
In words: FACS, mouse BMDM, WT minus MerTK KO. The procedure: To determine whether recombinant anti-human MerTK antibodies of the present disclosure bind to human MerTK endogenously expressed on SK-MEL-5 cells and CHO cells overexpressing mouse MerTK (CHO-muMerTK OE cells), as compared to A375 and parental CHO cells as negative controls, the following experiments were performed. SK-MEL-5 cells, A375 cells, CHO-muMerTK OE cells, and CHO parental cells were plated at 100,000 cells/well. Anti-MerTK antibodies were added to the cells at 10 μg/ml. After 60 minutes on ice, cells were washed and then stained with PE-conjugated goat anti-human IgG antibody (Southern Biotech Cat #2040-09, Birmingham, AL) in the presence of Fc block solution on ice for 30 minutes, and then washed twice with cold FACS buffer (2% FBS in PBS). Mouse anti-human MerTK-PE conjugated (Biolegend, Clone 590H11G1E3) or anti-mouse MerTK-PE conjugated (ThermoFisher, Clone DS5MMER) antibodies were used as positive controls. Stained cells were acquired on a BD FACS Canto II cytometer and the mean fluorescence intensity (MFI) was calculated with FlowJo.
To confirm anti-MerTK antibody binding to endogenous murine MerTK, bone marrow-derived macrophages (BMDM) were isolated from MerTK wild type (WT) and knockout (KO) mice (The Jackson Laboratory, Cat #011122) using standard protocols. Briefly, cells isolated from the bone marrow were plated in the presence of 50 ng/ml M-CSF (R&D Systems, Cat #416-ML) for seven days to allow for differentiation into macrophages. Cell staining, FACs, and MFI were performed and calculated as described above.
Background: A flow cytometer gives signals particle by particle.

Assay [2] has as its target T2, His tag-conjugated recombinant ProS (human, UniProt P07225 42-676, limits assumed).
T2 construct: bought; also called Protein S; ProS1 (R&D systems, Cat #9489-PS-100)
T2 sequence (looked up): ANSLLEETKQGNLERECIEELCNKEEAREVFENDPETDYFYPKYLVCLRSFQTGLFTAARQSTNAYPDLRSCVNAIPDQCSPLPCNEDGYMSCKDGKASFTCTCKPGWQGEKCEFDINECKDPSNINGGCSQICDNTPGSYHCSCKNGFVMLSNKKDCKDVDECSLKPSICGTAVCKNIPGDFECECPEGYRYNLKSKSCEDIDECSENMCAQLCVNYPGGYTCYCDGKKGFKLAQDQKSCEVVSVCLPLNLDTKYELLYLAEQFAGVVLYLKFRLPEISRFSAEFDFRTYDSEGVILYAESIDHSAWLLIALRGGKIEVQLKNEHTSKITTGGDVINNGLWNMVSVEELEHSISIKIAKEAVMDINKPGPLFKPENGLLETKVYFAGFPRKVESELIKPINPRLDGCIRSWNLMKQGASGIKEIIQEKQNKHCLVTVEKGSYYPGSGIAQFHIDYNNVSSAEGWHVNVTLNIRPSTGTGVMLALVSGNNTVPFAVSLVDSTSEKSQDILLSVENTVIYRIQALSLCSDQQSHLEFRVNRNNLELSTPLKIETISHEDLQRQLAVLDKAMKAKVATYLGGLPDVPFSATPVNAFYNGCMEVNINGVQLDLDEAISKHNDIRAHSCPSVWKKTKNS
In words: ELISA, captured Ab, ProS-His 10 ug/ml, no MerTK.

The target in assay [3] is T3, recombinant murine MerTK extracellular domain (mouse, UniProt Q60805 19-497).
T3 construct: also called Mouse MerTK; murine MerTK ECD; not shown: polyHis or TEVS/Thrombin/murine IgG2a-Fc tag
T3 sequence: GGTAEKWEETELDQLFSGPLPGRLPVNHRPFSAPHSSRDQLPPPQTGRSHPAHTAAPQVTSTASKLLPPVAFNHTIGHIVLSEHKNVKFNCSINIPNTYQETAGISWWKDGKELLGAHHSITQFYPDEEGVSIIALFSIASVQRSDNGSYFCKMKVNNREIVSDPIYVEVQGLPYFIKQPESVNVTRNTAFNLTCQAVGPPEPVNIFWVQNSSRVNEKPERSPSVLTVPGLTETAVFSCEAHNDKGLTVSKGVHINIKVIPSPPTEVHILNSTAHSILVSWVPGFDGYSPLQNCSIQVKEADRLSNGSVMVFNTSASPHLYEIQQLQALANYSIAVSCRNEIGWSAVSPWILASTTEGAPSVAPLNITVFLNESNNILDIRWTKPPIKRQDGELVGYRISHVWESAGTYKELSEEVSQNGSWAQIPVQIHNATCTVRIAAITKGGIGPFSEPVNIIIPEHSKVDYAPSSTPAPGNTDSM
In words: SPR Carterra LSA, Ab immobilised. Here is the method:
Binding kinetics of anti-MerTK IgG1 antibodies of the present disclosure to human, cyno, and murine MerTK were evaluated using a Carterra LSA instrument (Carterra, Salt Lake City, UT). […] A HC200M sensor chip (Carterra) was activated using the single channel flow cell with a 7-minute injection of a 1:1:1 mixture of 100 mM MES pH 5.5, 100 mM sulfo-NHS, 400 mM EDC (all reconstituted in MES pH 5.5; 100 μl of each mixed in vial immediately before running assay). After switching to the multi-channel array flow cell, the antibodies were injected over the activated chip in three 96-spot arrays for 10 minutes each. The remaining unconjugated active groups on the chip were then blocked by injecting 1M Ethanolamine pH 8.5 (Carterra) for 7 minutes using the single channel flow cell. The resulting sensor chip contained three spots for each antibody, at three different densities. Two independent experiments were performed as follows, resulting in an N of between one and six determinations for each antibody. Spots that yielded less than 25 RU of analyte binding were excluded from further analysis.
After priming with running buffer (HBS-TE, Carterra) with 0.5 mg/ml BSA (Sigma), the immobilized anti-MerTK antibodies were tested for their ability to bind to several forms of recombinant MerTK extracellular domain, including human, cynomolgus, and mouse orthologs as described above. Estimates of affinity were generated by injecting each analyte over the entire antibody array using the single channel flow cell. MerTK analytes were diluted with running buffer, in a series of six, three-fold serial dilutions starting from 1 μM for human and cynomolgus MerTK, and 600 nM for mouse MerTK. Analytes were injected for 5 minutes, and dissociation was followed for 10 minutes. After each analyte injection, antibodies were regenerated with either Protein A/G Elution Buffer (Thermo) with 1M NaCl (Teknova), or with 10 mM Glycine pH 2.5. Three buffer blanks were run between each series (one species per series). Data were processed and analyzed using NextGenKIT high-throughput kinetics analysis software (Carterra).

B1: MTK-232 (antibody, human IgG1, V domains shown)
VH: EVQLQESGPSLVKPSQTLSLTCSVTGDSITSGYWNWIRKFPGNKLEYMGYINYSGSTNYNPSLKSRISITRDTSKNQYYLQLNSVTTEDTATYYCARWNYLYYFDYWGQGTTLTVSS
VL: DSVMTQSHKFMSTLVGDRVSITCKASQDVGTAVAWYQQKPGQSPKVLIYWASTRHTGVPDRFTGSGSGTDFTLTITNVQSEDLADYFCHQYSTYPYTFGGGTKLEIK
Molecule B1 registered an MFI in assay [1] of 412 MFI. Moreover, the binding result in assay [2] was “binds”; in assay [3], “no binding (tested: analyte up to 600 nM)”.
